For assay [1], the target named is T1, Human PD-L1 (human, UniProt Q9NZQ7 19-238, limits assumed).
T1 construct: also called PD-L1 analyte (Biacore); hPD-L1
As to the kind of experiment: SPR (Biacore 3000), antibody captured, PD-L1 as analyte, 1:1 fit. Here is the method:
(§1) The binding kinetics between PD-L1 and PD-L1 antibodies were measured by Biacore analysis, which was performed at 25° C. on a Biacore3000 instrument and recorded with a data collection rate of 1 Hz. Polyclonal rabbit anti-mouse IgG (GE, BR-1008-38) was diluted with 10 mM pH 5.0 sodium acetate and immobilized onto reference and experiment flow cells of a CM5 biosensor chip to around 15000 RU using an amine coupling kit (GE, BR10050). […] PD-L1 analyte series were prepared by diluting the stocks with running buffer to 100 nM followed by 2× serial dilution in the same buffer down to 0.78 nM. Analytes were injected in series over the reference and experiment flow cells for 3 minutes at a flow rate of 30 μL/minute. Running buffer (PBS with 0.05% P20) was allowed to flow over for 10 minutes at a flow rate of 30 μL/minute. At the end of each cycle, the biosensor surface was regenerated with 3 minutes injection of 10 mM pH1.7 Glycine-HCl buffer at a flow rate of 10 μL/minute. For each analyte sample injection (i.e. each cycle), binding responses obtained from the experimental biosensor surface were double referenced by subtracting simultaneously recorded responses from the reference surface followed by additional subtraction of responses from a single referenced running buffer sample. The association and dissociation rate constants (ka and kd) were determined simultaneously by fitting double-referenced sensorgrams of the entire titration series to Langmuir model (1:1) using Biaevaluation 4.0 software. The dissociation constant, KD, was calculated from the determined rate constants by the relation KD=kd/ka.

The target in assay [2] is T2, cynomolgus PD-L1 (cynomolgus, UniProt G7PSE7 19-238).
T2 construct: also called Cyno-PD-L1; cyno-PD-L1; not shown: Any tag or Fc carrier on the soluble cynomolgus PD-L1 analyte
T2 sequence (G7PSE7 entry or part of it limits assumed): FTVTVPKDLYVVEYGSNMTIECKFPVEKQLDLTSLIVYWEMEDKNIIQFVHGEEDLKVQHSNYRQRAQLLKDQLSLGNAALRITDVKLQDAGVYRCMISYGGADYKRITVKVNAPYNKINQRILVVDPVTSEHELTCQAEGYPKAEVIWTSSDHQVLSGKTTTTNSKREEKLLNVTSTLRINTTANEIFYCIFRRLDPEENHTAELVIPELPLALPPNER
The description is as above. As to the method:
as §1

T1 sequence (Q9NZQ7 19-238 limits assumed): as the sequence (G7PSE7 entry or part of it limits assumed) above, with T33A, S34A, N62S, Q68R, R82Q, L173F, A185T, I192T, L215H counted along it

B1: hu13C5 (antibody)
VH: EVQLVESGGGLVKPGGSLRLSCAASGFIFRSYGMSWVRQAPGKGLEWVASISSGGSTYYPDSVKGRFTISRDNAKNSLYLQMNSLRAEDTAVYDCARGYDSGFAYWGQGTLVTVSS
light: DIVLTQSPASLAVSPGQRATITCRASQSVSTSSSSFMHWYQQKPGQPPKLLIKYASNLESGVPARFSGSGSGTDFTLTINPVEANDTANYYCQHSWEIPYTFGQGTKLEIKRTVAAPSVFIFPPSDEQLKSGTASVVCLLNNFYPREAKVQWKVDNALQSGNSQESVTEQDSKDSTYSLSSTLTLSKADYEKHKVYACEVTHQGLSSPVTKSFNRGEC
Turning to B1, the Kd in assay [1] worked out at 1.74 nM; in assay [2] it was 2.43 nM.

The values above are taken from patent US20170204184A1 (CB THERAPEUTICS, published 2017).
